Data: article PMC3669275

Assays:
[1] = target: 3NC, recombinant protein with a triplicate N36-GGSGG-C34 (HIV-1); assay: SPR; BIACORE X; 3NC (100 µg/ml) amine-coupled to a CM5 chip; C60 or POB1 (333–461) injected at 20 µl/min; 10 mM HEPES pH 7.4, 0.15 M NaCl, 3.4 mM EDTA, 0.005% P20
[2] = target: HIV-1 HXB2 Env (gp160; gp41) expressed on CHO-Env cells (HIV-1 HXB2) (UniProt P04578)
[3] = target: HIV-1 HXB2 Env (gp160; gp41) expressed on CHO-Env cells (HIV-1 HXB2) (UniProt P04578); remark: listed apart in the source

Substance “C60, recombinant POB1 (462–521) (domain or fragment)” has a Kd [1] of 0.0155 µM, an IC50 of inhibition of HIV-1 Env-mediated cell-cell fusion (syncytium formation, CHO-Env with 3T3.T4.CXCR4 cells) [2] of 1.09 µM and an IC50 of inhibition of infection of MT-2 cells by HIV-1 IIIB (X4-tropic), p24 ELISA [3] of 15.3 µM. For the same substance, the IC50 of inhibition of infection of TZM-bl cells by HIV-1 Bal (R5-tropic; the Env is that of strain Bal), luciferase [3] was 9.21 µM.
